According to US20210139548A1 (published 2021):
*1 amine or outer side, *2 acyl side, *3 side chain or, on linkers, in order; H or OH if unused. Side-chain parts run from the residue outwards. The star is where a group is joined. C18 diacid = O=C(O)CCCCCCCCCCCCCCCCC(=O)*; γGlu = O=C(O)[C@H](CCC(=O)[*:2])N[*:1]; Isovaleryl = CC(C)CC(=O)*; AEEA = NCCOCCOCC(=O)O

T1: human neuropeptide Y2 receptor (human, UniProt P49146 1-381)
T1 construct: whole, on cells; also called hNPY2 receptor; hNPY2-R
T1 sequence (looked up): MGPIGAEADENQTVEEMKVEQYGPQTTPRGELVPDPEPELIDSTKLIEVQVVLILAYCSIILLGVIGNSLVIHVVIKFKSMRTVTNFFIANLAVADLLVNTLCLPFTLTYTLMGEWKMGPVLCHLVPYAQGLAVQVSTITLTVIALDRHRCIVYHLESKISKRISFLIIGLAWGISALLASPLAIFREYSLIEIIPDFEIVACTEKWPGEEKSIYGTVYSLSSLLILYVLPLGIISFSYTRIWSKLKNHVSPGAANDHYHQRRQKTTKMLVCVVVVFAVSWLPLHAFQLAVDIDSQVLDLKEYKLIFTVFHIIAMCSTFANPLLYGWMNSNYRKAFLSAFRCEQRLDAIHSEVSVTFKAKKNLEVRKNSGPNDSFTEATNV

B1: Compound 139 (peptide)
peptide: Isovaleryl-APEK([AEEA-AEEA-γGlu-C18 diacid])PEEESSPEELQRYYVSLRHYYNWLTRQRY-NH2
SMILES: CC(C)CC(=O)N[C@@H](C)C(=O)N1CCC[C@H]1C(=O)N[C@@H](CCC(=O)O)C(=O)N[C@@H](CCCCNC(=O)COCCOCCNC(=O)COCCOCCNC(=O)CC[C@H](NC(=O)CCCCCCCCCCCCCCCCC(=O)O)C(=O)O)C(=O)N1CCC[C@H]1C(=O)N[C@@H](CCC(=O)O)C(=O)N[C@@H](CCC(=O)O)C(=O)N[C@@H](CCC(=O)O)C(=O)N[C@@H](CO)C(=O)N[C@@H](CO)C(=O)N1CCC[C@H]1C(=O)N[C@@H](CCC(=O)O)C(=O)N[C@@H](CCC(=O)O)C(=O)N[C@@H](CC(C)C)C(=O)N[C@@H](CCC(N)=O)C(=O)N[C@@H](CCCNC(=N)N)C(=O)N[C@@H](Cc1ccc(O)cc1)C(=O)N[C@@H](Cc1ccc(O)cc1)C(=O)N[C@H](C(=O)N[C@@H](CO)C(=O)N[C@@H](CC(C)C)C(=O)N[C@@H](CCCNC(=N)N)C(=O)N[C@@H](Cc1c[nH]cn1)C(=O)N[C@@H](Cc1ccc(O)cc1)C(=O)N[C@@H](Cc1ccc(O)cc1)C(=O)N[C@@H](CC(N)=O)C(=O)N[C@@H](Cc1c[nH]c2ccccc12)C(=O)N[C@@H](CC(C)C)C(=O)N[C@H](C(=O)N[C@@H](CCCNC(=N)N)C(=O)N[C@@H](CCC(N)=O)C(=O)N[C@@H](CCCNC(=N)N)C(=O)N[C@@H](Cc1ccc(O)cc1)C(N)=O)[C@@H](C)O)C(C)C
B2: Compound 141 (peptide)
peptide: Isovaleryl-APEK([AEEA-AEEA-γGlu-C18 diacid])PEEAASPEELQRYYVSARHYYNWLTRQRY-NH2
SMILES: CC(C)CC(=O)N[C@@H](C)C(=O)N1CCC[C@H]1C(=O)N[C@@H](CCC(=O)O)C(=O)N[C@@H](CCCCNC(=O)COCCOCCNC(=O)COCCOCCNC(=O)CC[C@H](NC(=O)CCCCCCCCCCCCCCCCC(=O)O)C(=O)O)C(=O)N1CCC[C@H]1C(=O)N[C@@H](CCC(=O)O)C(=O)N[C@@H](CCC(=O)O)C(=O)N[C@@H](C)C(=O)N[C@@H](C)C(=O)N[C@@H](CO)C(=O)N1CCC[C@H]1C(=O)N[C@@H](CCC(=O)O)C(=O)N[C@@H](CCC(=O)O)C(=O)N[C@@H](CC(C)C)C(=O)N[C@@H](CCC(N)=O)C(=O)N[C@@H](CCCNC(=N)N)C(=O)N[C@@H](Cc1ccc(O)cc1)C(=O)N[C@@H](Cc1ccc(O)cc1)C(=O)N[C@H](C(=O)N[C@@H](CO)C(=O)N[C@@H](C)C(=O)N[C@@H](CCCNC(=N)N)C(=O)N[C@@H](Cc1c[nH]cn1)C(=O)N[C@@H](Cc1ccc(O)cc1)C(=O)N[C@@H](Cc1ccc(O)cc1)C(=O)N[C@@H](CC(N)=O)C(=O)N[C@@H](Cc1c[nH]c2ccccc12)C(=O)N[C@@H](CC(C)C)C(=O)N[C@H](C(=O)N[C@@H](CCCNC(=N)N)C(=O)N[C@@H](CCC(N)=O)C(=O)N[C@@H](CCCNC(=N)N)C(=O)N[C@@H](Cc1ccc(O)cc1)C(N)=O)[C@@H](C)O)C(C)C
B3: Compound 142 (peptide)
peptide: Isovaleryl-APEK([AEEA-AEEA-γGlu-C18 diacid])PPEEASPEELQRYYVSLRHYYNWLTRQRY-NH2
SMILES: CC(C)CC(=O)N[C@@H](C)C(=O)N1CCC[C@H]1C(=O)N[C@@H](CCC(=O)O)C(=O)N[C@@H](CCCCNC(=O)COCCOCCNC(=O)COCCOCCNC(=O)CC[C@H](NC(=O)CCCCCCCCCCCCCCCCC(=O)O)C(=O)O)C(=O)N1CCC[C@H]1C(=O)N1CCC[C@H]1C(=O)N[C@@H](CCC(=O)O)C(=O)N[C@@H](CCC(=O)O)C(=O)N[C@@H](C)C(=O)N[C@@H](CO)C(=O)N1CCC[C@H]1C(=O)N[C@@H](CCC(=O)O)C(=O)N[C@@H](CCC(=O)O)C(=O)N[C@@H](CC(C)C)C(=O)N[C@@H](CCC(N)=O)C(=O)N[C@@H](CCCNC(=N)N)C(=O)N[C@@H](Cc1ccc(O)cc1)C(=O)N[C@@H](Cc1ccc(O)cc1)C(=O)N[C@H](C(=O)N[C@@H](CO)C(=O)N[C@@H](CC(C)C)C(=O)N[C@@H](CCCNC(=N)N)C(=O)N[C@@H](Cc1c[nH]cn1)C(=O)N[C@@H](Cc1ccc(O)cc1)C(=O)N[C@@H](Cc1ccc(O)cc1)C(=O)N[C@@H](CC(N)=O)C(=O)N[C@@H](Cc1c[nH]c2ccccc12)C(=O)N[C@@H](CC(C)C)C(=O)N[C@H](C(=O)N[C@@H](CCCNC(=N)N)C(=O)N[C@@H](CCC(N)=O)C(=O)N[C@@H](CCCNC(=N)N)C(=O)N[C@@H](Cc1ccc(O)cc1)C(N)=O)[C@@H](C)O)C(C)C
B4: Compound 144 (peptide)
peptide: Isovaleryl-APEK([AEEA-AEEA-γGlu-C18 diacid])AEEDASPEELQQYYVSLRHYYNWLTRQRY-NH2
SMILES: CC(C)CC(=O)N[C@@H](C)C(=O)N1CCC[C@H]1C(=O)N[C@@H](CCC(=O)O)C(=O)N[C@@H](CCCCNC(=O)COCCOCCNC(=O)COCCOCCNC(=O)CC[C@H](NC(=O)CCCCCCCCCCCCCCCCC(=O)O)C(=O)O)C(=O)N[C@@H](C)C(=O)N[C@@H](CCC(=O)O)C(=O)N[C@@H](CCC(=O)O)C(=O)N[C@@H](CC(=O)O)C(=O)N[C@@H](C)C(=O)N[C@@H](CO)C(=O)N1CCC[C@H]1C(=O)N[C@@H](CCC(=O)O)C(=O)N[C@@H](CCC(=O)O)C(=O)N[C@@H](CC(C)C)C(=O)N[C@@H](CCC(N)=O)C(=O)N[C@@H](CCC(N)=O)C(=O)N[C@@H](Cc1ccc(O)cc1)C(=O)N[C@@H](Cc1ccc(O)cc1)C(=O)N[C@H](C(=O)N[C@@H](CO)C(=O)N[C@@H](CC(C)C)C(=O)N[C@@H](CCCNC(=N)N)C(=O)N[C@@H](Cc1c[nH]cn1)C(=O)N[C@@H](Cc1ccc(O)cc1)C(=O)N[C@@H](Cc1ccc(O)cc1)C(=O)N[C@@H](CC(N)=O)C(=O)N[C@@H](Cc1c[nH]c2ccccc12)C(=O)N[C@@H](CC(C)C)C(=O)N[C@H](C(=O)N[C@@H](CCCNC(=N)N)C(=O)N[C@@H](CCC(N)=O)C(=O)N[C@@H](CCCNC(=N)N)C(=O)N[C@@H](Cc1ccc(O)cc1)C(N)=O)[C@@H](C)O)C(C)C
B5: Compound 145 (peptide)
peptide: Isovaleryl-APEK([AEEA-AEEA-γGlu-C18 diacid])PEEDSSPEEIQRYYVSLRHYYNWLTRQRY-NH2
SMILES: CC[C@H](C)[C@H](NC(=O)[C@H](CCC(=O)O)NC(=O)[C@H](CCC(=O)O)NC(=O)[C@@H]1CCCN1C(=O)[C@H](CO)NC(=O)[C@H](CO)NC(=O)[C@H](CC(=O)O)NC(=O)[C@H](CCC(=O)O)NC(=O)[C@H](CCC(=O)O)NC(=O)[C@@H]1CCCN1C(=O)[C@H](CCCCNC(=O)COCCOCCNC(=O)COCCOCCNC(=O)CC[C@H](NC(=O)CCCCCCCCCCCCCCCCC(=O)O)C(=O)O)NC(=O)[C@H](CCC(=O)O)NC(=O)[C@@H]1CCCN1C(=O)[C@H](C)NC(=O)CC(C)C)C(=O)N[C@@H](CCC(N)=O)C(=O)N[C@@H](CCCNC(=N)N)C(=O)N[C@@H](Cc1ccc(O)cc1)C(=O)N[C@@H](Cc1ccc(O)cc1)C(=O)N[C@H](C(=O)N[C@@H](CO)C(=O)N[C@@H](CC(C)C)C(=O)N[C@@H](CCCNC(=N)N)C(=O)N[C@@H](Cc1c[nH]cn1)C(=O)N[C@@H](Cc1ccc(O)cc1)C(=O)N[C@@H](Cc1ccc(O)cc1)C(=O)N[C@@H](CC(N)=O)C(=O)N[C@@H](Cc1c[nH]c2ccccc12)C(=O)N[C@@H](CC(C)C)C(=O)N[C@H](C(=O)N[C@@H](CCCNC(=N)N)C(=O)N[C@@H](CCC(N)=O)C(=O)N[C@@H](CCCNC(=N)N)C(=O)N[C@@H](Cc1ccc(O)cc1)C(N)=O)[C@@H](C)O)C(C)C
B6: Compound 146 (peptide)
peptide: Isovaleryl-APEK([AEEA-AEEA-γGlu-C18 diacid])PEEEASPEELQRYYVSTRHYYNWLTRQRY-NH2
SMILES: CC(C)CC(=O)N[C@@H](C)C(=O)N1CCC[C@H]1C(=O)N[C@@H](CCC(=O)O)C(=O)N[C@@H](CCCCNC(=O)COCCOCCNC(=O)COCCOCCNC(=O)CC[C@H](NC(=O)CCCCCCCCCCCCCCCCC(=O)O)C(=O)O)C(=O)N1CCC[C@H]1C(=O)N[C@@H](CCC(=O)O)C(=O)N[C@@H](CCC(=O)O)C(=O)N[C@@H](CCC(=O)O)C(=O)N[C@@H](C)C(=O)N[C@@H](CO)C(=O)N1CCC[C@H]1C(=O)N[C@@H](CCC(=O)O)C(=O)N[C@@H](CCC(=O)O)C(=O)N[C@@H](CC(C)C)C(=O)N[C@@H](CCC(N)=O)C(=O)N[C@@H](CCCNC(=N)N)C(=O)N[C@@H](Cc1ccc(O)cc1)C(=O)N[C@@H](Cc1ccc(O)cc1)C(=O)N[C@H](C(=O)N[C@@H](CO)C(=O)N[C@H](C(=O)N[C@@H](CCCNC(=N)N)C(=O)N[C@@H](Cc1c[nH]cn1)C(=O)N[C@@H](Cc1ccc(O)cc1)C(=O)N[C@@H](Cc1ccc(O)cc1)C(=O)N[C@@H](CC(N)=O)C(=O)N[C@@H](Cc1c[nH]c2ccccc12)C(=O)N[C@@H](CC(C)C)C(=O)N[C@H](C(=O)N[C@@H](CCCNC(=N)N)C(=O)N[C@@H](CCC(N)=O)C(=O)N[C@@H](CCCNC(=N)N)C(=O)N[C@@H](Cc1ccc(O)cc1)C(N)=O)[C@@H](C)O)[C@@H](C)O)C(C)C

target: T1, human neuropeptide Y2 receptor; experiment: radioligand competition (125I-PYY(1-36)), hNPY2R membranes
Summary of the method: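 Commercial human Y2 receptor membranes (0.5 μg protein/well) were incubated with peptide for 2 h at room temperature in 50 mM HEPES, 5 mM MgCl₂, 1 mM CaCl₂, pH 7.4, with 0.2% ovalbumin. Bound radioligand was separated on PEI-soaked GF/C filters and counted by scintillation, and IC₅₀ came from nonlinear sigmoidal regression.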

B1 and B2 are within 1.5-fold of each other in Ki: 3.83 nM for the first, 3.12 nM for the second.

Compared with B3, B4 is 7.6-fold higher in Ki: 1.17 nM for the first, 8.92 nM for the second. The first binds more tightly here.

First: B5
Second: B6
The Ki of the first is 3.3-fold lower: 1.55 nM for the first, 5.05 nM for the second. The first binds more tightly here.
